# Laboratory results from patent US8691225B2, “Antibodies against the ectodomain of ErbB3 and uses thereof” (Merrimack Pharmaceuticals, Inc., priority 2007, dated 2014).
# Key:
# [1] = molecular target: T1, ErbB3 in AdrR xenografts (Homo sapiens, UniProt P21860); assay: total ErbB3 in AdrR xenografts in vivo by ELISA; design: species or system mouse
# T1 construct: host or cells: AdrR (NCI/AdrR) ovarian cancer cells
# Experimental: Briefly, the samples were pulverized in a cryopulverizer (Covaris Inc). Tumors were stored in special bags (pre-weighed before the addition of the tumor) and placed in liquid nitrogen while handling them. For small tumors, 200 μL of Lysis buffer was first added to the bag with the tumor, frozen in liquid nitrogen and then pulverized to improve the recovery of the tumor from the bag. Pulverized tumors were transferred to 2 ml EPPENDORF tubes and placed in liquid nitrogen until lysed. Tumors were lysed in Lysis buffer supplemented with protease and phosphatase inhibitors. Lysis Buffer was added to the tumor aliquots in a final concentration of 62.5 mg/ml. Tumor samples were homogenized by vortexing for 30 seconds and letting them sit on ice for 30 min. The lysates were spun for 10 minutes in QIAGEN […] columns for further homogenization of the samples. Cleared lysates were aliquoted into fresh tubes.
# The BCA assay is performed as set forth substantially as described in the materials and methods section supra.
# The total levels of ErbB3 were determined by ELISA. The ELISA reagents were purchased from R&D Systems as DUOSET kits. […] Fifty microliters of SUPERSIGNAL ELISA Pico substrate was added and readout was performed on a Fusion plate reader. Data was analyzed using Microsoft EXCEL. […]
# [2] = molecular target: T2, ErbB3 in MALME-3M cells (Homo sapiens, UniProt P21860); assay: total ErbB3 levels in MALME-3M cells in vitro by ELISA; format: cell-based; settings: 24 hours
# T2 construct: ErbB3 expressed on MALME-3M melanoma cells; host or cells: MALME-3M melanoma cells
# Experimental: MALME-3M cells are seeded in 96 well tissue culture plates and grown in RPMI-1640 media supplemented with antibiotics, 2 mM L-glutamine and 10% fetal bovine serum (FBS) for 24 hours at 37° C. and 5% carbon dioxide. Media are then switched to the same medium without FBS and with and without the antibody at concentrations of 1 uM, 250 nM, 63 nM, 16 nM, 4.0 nM, 1.0 nM, 240 pM, 61 pM and 15 pM. Medium containing no FBS or antibody is used as control. Cells are grown for 24 hours at 37° C. and 5% carbon dioxide, washed with cold PBS, then harvested with mammalian protein extract (MPER) lysis buffer (Pierce, 78505) to which 150 mM NaCl, 5 mM sodium pyrophosphate, 10 uM bpV (phen), 50 uM phenylarsine, 1 mM sodium orthovanadate, and protease inhibitor cocktail (Sigma, P2714) is added. Cell lysates are diluted two-fold with 4% bovine serum albumin in PBST (0.1% tween-20), then analyzed by ELISA with mouse anti-human ErbB3 capture antibody and biotinylated mouse anti-human ErbB3 secondary detection antibody. Signal is generated with streptavidin conjugated to horseradish-peroxidase reacted with SUPERSIGNAL ELISA Pico chemiluminescent substrate (Pierce, 37070). ELISAs are quantitated using a luminometer.
# [3] = molecular target: T3, ErbB3 receptors on MALME-3M cells (Homo sapiens, UniProt P21860); assay: downregulation of ErbB3 receptors on MALME-3M cells by FACS; format: cell-based; settings: 100 nM
# T3 construct: ErbB3 expressed on MALME-3M melanoma cells; host or cells: MALME-3M melanoma cells
# Experimental: MALME-3M cells are trypsinized from a 15 cm dish and washed once with RPMI+10% FBS. Cell pellets are resuspended at a density of 1×10^6 cells per ml. Two aliquots of 2×10^5 cells are added to separate wells in a 12-well tissue culture plate and each resuspended in a final volume of 800 ul RPMI+10% FBS.
# Cells are washed twice with 1 ml BD stain buffer and incubated with 100 ul of a 1:500 dilution of Alexa 647-labeled goat anti-human Alexa 647 for 45 minutes on ice. Cells are then washed and resuspended in 300 ul BD stain buffer+0.5 ug/ml propidium iodide. Analysis of 10,000 cells is done in a FACSCALIBUR flow cytometer using the FL4 channel.
molecule,measurement,setting,value
"Ab #6: human anti-ErbB3 antibody from Fab-phage library, CDRs SEQ ID NOs:7-12; used as IgG1 and IgG2 isotypes; in phase I trials as MM-121 (antibody, V domains shown) VH: EVQLLESGGGLVQPGGSLRLSCAASGFTFSHYVMAWVRQAPGKGLEWVSSISSSGGWTLYADSVKGRFTISRDNSKNTLYLQMNSLRAEDTAVYYCTRGLKMATIFDYWGQGTLVTVSS VL: QSALTQPASVSGSPGQSITISCTGTSSDVGSYNVVSWYQQHPGKAPKLIIYEVSQRPSGVSNRFSGSKSGNTASLTISGLQTEDEADYYCCSYAGSSIFVIFGGGTKVTVL",downregulation of ErbB3 in xenografts,[1],downregulated ErbB3
same,decrease of total ErbB3 levels,[2],about 46.9%
same,downregulation of ErbB3 on MALME-3M cells,[3]; IgG1 isotype,about 62%
same,downregulation of ErbB3 on MALME-3M cells,[3]; IgG2 isotype,about 66%
